Like-named read-outs stand apart in the source and are kept apart here.
How the values were obtained:
[1] = molecular target: his-tagged BGPh from P. horikoshii (His-BGPh) (Pyrococcus horikoshii, UniProt O58104); type: biochemical; settings: for kcat: His-BGPh, 90° C. and pH 6.0; for efficiency of hydrolysis by His-BGPh: in words
Method: (§1) The enzyme reactions were carried out at 90° C. in a solution […] containing the substrate and the purified His-BGPh in 50 mM phosphate buffer (pH 6) with 0.1% Triton X-100 and 0.3 M NaCl. For the hydrolysis of p-nitrophenyl (p-Nph) β-D-saccharides, the reaction was terminated by the addition of 1 M Na2CO3 (1 ml), then centrifuged at 15,000×g for 10 min. The concentration of the p-Nph group in the supernatant was quantified by measuring the absorbance at 400 nm. For the hydrolysis of β-D-glucoside, the released glucose was analyzed with a Glucose C-II Test kit (Wako Pure Chemicals, Japan). Initial velocities were obtained directly from the initial slopes of the time course plots. The Km and kcat values were calculated using the Michaelis-Menten equation and the least squares method (12). The subsite affinity for a long alkyl chain was determined using the method reported previously (13-15) on the basis of the subsite theory (16).

[2] = molecular target: T1, Sβ-gly from S. solfataricus strain MT-4 (Saccharolobus solfataricus, UniProt P22498); settings: cited from earlier work; for Km / kcat: Sβ-gly, 75° C. and pH 6.5; for efficiency of hydrolysis by Sβ-gly: in words
T1 sequence (P22498 whole entry N62M/R140P/N205M/N208M/A235H/V319M/K445F/G469C): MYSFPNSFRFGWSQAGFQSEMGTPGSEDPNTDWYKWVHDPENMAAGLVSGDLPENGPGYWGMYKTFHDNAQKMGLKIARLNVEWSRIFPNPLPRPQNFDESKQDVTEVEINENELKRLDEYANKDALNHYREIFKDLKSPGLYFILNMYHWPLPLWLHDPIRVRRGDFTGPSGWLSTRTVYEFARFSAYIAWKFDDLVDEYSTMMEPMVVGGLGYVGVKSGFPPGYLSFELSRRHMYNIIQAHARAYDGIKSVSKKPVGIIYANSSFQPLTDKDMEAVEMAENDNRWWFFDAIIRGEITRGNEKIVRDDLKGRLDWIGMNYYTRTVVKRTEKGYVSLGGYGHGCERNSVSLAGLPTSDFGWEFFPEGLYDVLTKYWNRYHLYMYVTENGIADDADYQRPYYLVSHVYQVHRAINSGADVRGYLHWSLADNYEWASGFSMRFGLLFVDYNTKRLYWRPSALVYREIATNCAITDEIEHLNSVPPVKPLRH

[3] = molecular target: T1, Sβ-gly from S. solfataricus strain MT-4; test: Kinetic parameters of substrate hydrolysis by Sβ-gly (from references 7, 21); type: biochemical, Sulfolobus solfataricus
Optimum temperature = type: biochemical; settings: p-Nph-β-D-Glcp; listed as purified enzyme
Method: The enzyme reactions were carried out in duplicate at temperatures ranging from 50° C. to 100° C. for 30 min. Optical density measurements at A405 were performed as described for the enzyme assays.

Optimum pH = type: biochemical; settings: p-Nph-β-D-Glcp, 90° C.
Method: The pH of the reaction mixtures ranged from 3.9 to 5.5 in sodium acetate buffer and from 5.5 to 7.99 in phosphate buffer. Optical density measurements at A405 were performed as described for the enzyme assays.

[4] = Heat treatment of the purified enzyme at 95° C.; type: physicochemical; settings: 50 mM phosphate buffer (pH 6.0), 250 mM NaCl, 95° C. for 1 hour
Method: When the enzyme is treated in 50 mM phosphate buffer (pH 6.0) containing 250 mM NaCl at 95° C. for 1 hour, its activity is retained at the level of 80% based on the initial level. The enzyme has an optimum pH of pH 6.0 and an optimum temperature of 100° C. or higher in terms of the enzymatic activity.

[5] = Subsite affinity of BGPh for a long alkyl chain; type: biochemical; settings: from kcat/Km of n-Dodecyl- vs Methyl-β-D-Glcp
Method: as §1

[6] = substrate: OCc1ccccc1O[C@@H]1O[C@H](CO)[C@@H](O)[C@H](O)[C@H]1O; test: purified protein, by the assay type; settings: other: His-BGPh, 90° C. and pH 6.0
[7] = substrate: CCCCCCCCCCCCO[C@@H]1O[C@H](CO)[C@@H](O)[C@H](O)[C@H]1O; test: purified protein, by the assay type; type: biochemical; settings: other: His-BGPh, 90° C. and pH 6.0
Method: (§2) The enzyme reactions were carried out at 90° C. in a solution (200 ml) containing the substrate and the purified His-BGPh in 50 mM phosphate buffer (pH 6) with 0.1% Triton X-100 and 0.3 M NaCl. For the hydrolysis of p-nitrophenyl (p-Nph) β-D-saccharides, the reaction was terminated by the addition of 1 M Na2CO3 (1 ml), then centrifuged at 15,000×g for 10 min. The concentration of the p-Nph group in the supernatant was quantified by measuring the absorbance at 400 nm. For the hydrolysis of β-D-glucoside, the released glucose was analyzed with a Glucose C-II Test kit (Wako Pure Chemicals, Japan). Initial velocities were obtained directly from the initial slopes of the time course plots. The Km and kcat values were calculated using the Michaelis-Menten equation and the least squares method (12). The subsite affinity for a long alkyl chain was determined using the method reported previously (13-15) on the basis of the subsite theory (16).

[8] = substrate: CCCCCCCCCCCO[C@@H]1O[C@H](CO)[C@@H](O)[C@H](O)[C@H]1O; test: purified protein, by the assay type; type: biochemical; settings: other: His-BGPh, 90° C. and pH 6.0
Method: as §2

[9] = substrate: CCCCCCCCCCO[C@@H]1O[C@H](CO)[C@@H](O)[C@H](O)[C@H]1O; test: purified protein, by the assay type; type: biochemical; settings: other: His-BGPh, 90° C. and pH 6.0
Method: as §2

[10] = substrate: CCCCCCCCCO[C@@H]1O[C@H](CO)[C@@H](O)[C@H](O)[C@H]1O; test: purified protein, by the assay type; type: biochemical; settings: other: His-BGPh, 90° C. and pH 6.0
Method: as §2

[11] = substrate: CCCCCCCCO[C@@H]1O[C@H](CO)[C@@H](O)[C@H](O)[C@H]1O; test: purified protein, by the assay type; type: biochemical; settings: other: His-BGPh, 90° C. and pH 6.0
Method: as §2

[12] = substrate: CCCCCCO[C@@H]1O[C@H](CO)[C@@H](O)[C@H](O)[C@H]1O; test: purified protein, by the assay type; type: biochemical; settings: other: His-BGPh, 90° C. and pH 6.0
Method: as §2

[13] = substrate: CCCCCO[C@@H]1O[C@H](CO)[C@@H](O)[C@H](O)[C@H]1O; test: purified protein, by the assay type; type: biochemical; settings: other: His-BGPh, 90° C. and pH 6.0
Method: as §2

[14] = substrate: CO[C@@H]1O[C@H](CO)[C@@H](O)[C@H](O)[C@H]1O; test: purified protein, by the assay type; type: biochemical; settings: other: His-BGPh, 90° C. and pH 6.0
Method: as §2

[15] = substrate: O=[N+]([O-])c1ccc(O[C@@H]2OC[C@@H](O)[C@H](O)[C@H]2O)cc1; test: purified protein, by the assay type; type: biochemical; settings: other: His-BGPh, 90° C. and pH 6.0
Method: as §2

[16] = substrate: O=[N+]([O-])c1ccc(O[C@@H]2O[C@H](CO)[C@@H](O)[C@H](O)[C@@H]2O)cc1; test: purified protein, by the assay type; type: biochemical; settings: other: His-BGPh, 90° C. and pH 6.0
Method: as §2

[17] = substrate: O=[N+]([O-])c1ccc(O[C@@H]2O[C@H](CO)[C@@H](O)[C@H](O)[C@H]2O)cc1; test: purified protein, by the assay type; type: biochemical; settings: other: His-BGPh, 90° C. and pH 6.0
Method: as §2

[18] = substrate: O=[N+]([O-])c1ccc(O[C@@H]2O[C@H](CO)[C@H](O)[C@H](O)[C@H]2O)cc1; test: purified protein, by the assay type; type: biochemical; settings: other: His-BGPh, 90° C. and pH 6.0
Method: as §2

Q: For Cellobiose, which kcat [1] is on record?
A: 194 s⁻¹

Q: And the Km [2]?
A: 30000 µM

Q: What about the kcat [2] of the same molecule?
A: 1333 s⁻¹

Q: What does the source list for `O=[N+]([O-])c1ccc(O[C@@H]2O[C@H](CO)[C@H](O)[C@H](O)[C@H]2O)cc1` [p-Nph-β-D-Galp]?
A: Km [2]: 4700 µM; kcat [2]: 1020 s⁻¹

Q: For `O=[N+]([O-])c1ccc(O[C@@H]2O[C@H](CO)[C@@H](O)[C@H](O)[C@H]2O)cc1` [p-Nph-β-D-Glcp, p-nitrophenyl β-D-glucopyranoside], which Km [2] is on record?
A: 500 µM

Q: What about the kcat [2] of the same molecule?
A: 542 s⁻¹

Q: For `OC[C@H]1O[C@@H](O[C@H]2[C@H](O)[C@@H](O)[C@H](O[C@H]3[C@H](O)[C@@H](O)[C@H](O[C@H]4[C@H](O)[C@@H](O)C(O)O[C@@H]4CO)O[C@@H]3CO)O[C@@H]2CO)[C@H](O)[C@@H](O)[C@@H]1O` (some centres unmarked) [Cellotetraose], which “efficiency of hydrolysis by His-BGPh” value [1] is on record?
A: low efficiency

Q: What about the kcat [2] of the same molecule?
A: 584 s⁻¹

Q: What about the Km ([2]; read-out: Km) of the same molecule?
A: 1700 µM

Q: What about the “efficiency of hydrolysis by Sβ-gly” value [2] of the same molecule?
A: high efficiency

Q: Which Km [2] does the source give for `CCCCCO[C@@H]1O[C@H](CO)[C@@H](O)[C@H](O)[C@H]1O` [n-Amyl-β-D-Glcp] here?
A: 1100 µM

Q: And the kcat [2]?
A: 256 s⁻¹

Q: Which results are given for `OC[C@H]1O[C@@H](O[C@H]2[C@H](O)[C@@H](O)[C@H](O[C@H]3[C@H](O)[C@@H](O)C(O)O[C@@H]3CO)O[C@@H]2CO)[C@H](O)[C@@H](O)[C@@H]1O` (some centres unmarked) [Cellotriose]?
A: efficiency of hydrolysis by His-BGPh [1]: low efficiency; kcat [2]: 197 s⁻¹; Km ([2]; read-out: Km): 3000 µM; efficiency of hydrolysis by Sβ-gly [2]: high efficiency

Q: With `CCCCCCCCO[C@@H]1O[C@H](CO)[C@@H](O)[C@H](O)[C@H]1O` [n-Octyl-β-D-Glcp] as the molecule, how does the “kcat/Km relative to that for laminaribiose” value [3] read?
A: 0.48 fold

Q: What about the “kcat/Km relative to that for p-Nph-β-D-Glcp” value [3] of the same molecule?
A: 0.4 fold

Q: And the Km [2]?
A: 700 µM

Q: What about the kcat [2] of the same molecule?
A: 313 s⁻¹

Q: For `OC[C@H]1O[C@@H](O[C@H]2[C@H](O)[C@@H](CO)OC(O)[C@@H]2O)[C@H](O)[C@@H](O)[C@@H]1O` (some centres unmarked) [Laminaribiose], which kcat [1] is on record?
A: 184 s⁻¹

Q: What about the Km [2] of the same molecule?
A: 1000 µM

Q: What about the kcat [2] of the same molecule?
A: 908 s⁻¹

Q: With `CCCCCCO[C@@H]1O[C@H](CO)[C@@H](O)[C@H](O)[C@H]1O` [n-Hexyl-β-D-Glcp] as the molecule, how does the Km [2] read?
A: 1000 µM

Q: What about the kcat [2] of the same molecule?
A: 263 s⁻¹

Q: What does the source list for `OC[C@H]1O[C@@H](OC[C@H]2O[C@@H](O)[C@H](O)[C@@H](O)[C@@H]2O)[C@H](O)[C@@H](O)[C@@H]1O` [β-Gentiobiose]?
A: kcat [2]: 1360 s⁻¹; Km ([2]; read-out: Km): 100000 µM

Q: Which Km [2] does the source give for `OCc1ccccc1O[C@@H]1O[C@H](CO)[C@@H](O)[C@H](O)[C@H]1O` [Salicin] here?
A: 5000 µM

Q: And the kcat [2]?
A: 880 s⁻¹

Q: For `O=[N+]([O-])c1ccc(O[C@@H]2OC[C@@H](O)[C@H](O)[C@H]2O)cc1` [p-Nph-β-D-Xylp], which Km [2] is on record?
A: 4000 µM

Q: And the kcat [2]?
A: 284 s⁻¹

B1: his-tagged BGPh from P. horikoshii (His-BGPh) (Pyrococcus horikoshii OT3) (protein)
chain: MPLKFPEMFLFGTATSSHQIEGNNRWNDWWYYEQIGKLPYRSGKACNHWELYRDDIQLMTSLGYNAYRFSIEWSRLFPEENKFNEDAFMKYREIIDLLLTRGITPLVTLHHFTSPLWFMKKGGFLREENLKHWEKYIEKVAELLEKVKLVATFNEPMVYVMMGYLTAYWPPFIRSPFKAFKVAANLLKAHAIAYELLHGKFKVGIVKNIPIILPASDKERDRKAAEKADNLFNWHFLDAIWSGKYRGVFKTYRIPQSDADFIGVNYYTASEVRHTWNPLKFFFEVKLADISERKTQMGWSVYPKGIYMALKKASRYGRPLYITENGIATLDDEWRVEFIIQHLQYVHKAIEDGLDVRGYFYWSFMDNYEWKEGFGPRFGLVEVDYQTFERRPRKSAYVYGEIARSKEIKDELLKRYGLPELQL
Q: With B1 as the molecule, how does the optimum temperature (Optimum temperature) read?
A: ≥ 100 °C

Q: What about the “optimum pH” value (Optimum pH) of the same molecule?
A: 6.0

Q: What about the “activity retained based on the initial level” value [4] of the same molecule?
A: 80%

Q: And the “subsite affinity A(C11) to bind a long alkyl chain (C11)” value [5]?
A: 4.26 kcal/mol

Q: And the Km [6]?
A: 1960 µM

Q: And the kcat [6]?
A: 44 s⁻¹

Q: What about the kcat/Km [6] of the same molecule?
A: 22200 M⁻¹ s⁻¹

Q: And the Km [7]?
A: 30 µM

Q: What about the kcat [7] of the same molecule?
A: 36 s⁻¹

Q: What about the kcat/Km [7] of the same molecule?
A: 1.1529e+06 M⁻¹ s⁻¹

Q: And the Km [8]?
A: 50 µM

Q: What about the kcat [8] of the same molecule?
A: 43 s⁻¹

Q: And the kcat/Km [8]?
A: 944370 M⁻¹ s⁻¹

Q: What about the Km [9] of the same molecule?
A: 80 µM

Q: And the kcat [9]?
A: 37 s⁻¹

Q: And the kcat/Km [9]?
A: 469620 M⁻¹ s⁻¹

Q: And the Km [10]?
A: 80 µM

Q: What about the kcat [10] of the same molecule?
A: 39 s⁻¹

Q: And the kcat/Km [10]?
A: 471570 M⁻¹ s⁻¹

Q: And the Km [11]?
A: 200 µM

Q: What about the kcat [11] of the same molecule?
A: 34 s⁻¹

Q: What about the kcat/Km [11] of the same molecule?
A: 170700 M⁻¹ s⁻¹

Q: What about the Km [12] of the same molecule?
A: 540 µM

Q: And the kcat [12]?
A: 33 s⁻¹

Q: What about the kcat/Km [12] of the same molecule?
A: 60280 M⁻¹ s⁻¹

Q: What about the Km [13] of the same molecule?
A: 2020 µM

Q: And the kcat [13]?
A: 31 s⁻¹

Q: What about the kcat/Km [13] of the same molecule?
A: 15110 M⁻¹ s⁻¹

Q: What about the Km [14] of the same molecule?
A: 40740 µM

Q: And the kcat [14]?
A: 35 s⁻¹

Q: What about the kcat/Km [14] of the same molecule?
A: 850 M⁻¹ s⁻¹

Q: What about the Km [15] of the same molecule?
A: 100 µM

Q: And the kcat [15]?
A: 3 s⁻¹

Q: And the kcat/Km [15]?
A: 31830 M⁻¹ s⁻¹

Q: What about the kcat [16] of the same molecule?
A: 2 s⁻¹

Q: What about the kcat/Km [16] of the same molecule?
A: 14600 M⁻¹ s⁻¹

Q: And the Km [17]?
A: 350 µM

Q: And the kcat [17]?
A: 79 s⁻¹

Q: And the kcat/Km [17]?
A: 225670 M⁻¹ s⁻¹

Q: And the Km [18]?
A: 1300 µM

Q: And the kcat [18]?
A: 123 s⁻¹

Q: And the kcat/Km [18]?
A: 94340 M⁻¹ s⁻¹
